Experimental data taken from US20200299408A1 (Genentech, published 2020).
Changes are numbered by the printed parent chain. Blank lines part the entries; values can stand above or below the binder they belong to.

Experiments:
[1] = target: T1, single chain human CD3ε-26mer-CD3γ (CD3εγ) (human); test: Biacore, human CD3εγ on chip, antibody in flow-through
T1 construct: also called human CD3εγ
T1 chain: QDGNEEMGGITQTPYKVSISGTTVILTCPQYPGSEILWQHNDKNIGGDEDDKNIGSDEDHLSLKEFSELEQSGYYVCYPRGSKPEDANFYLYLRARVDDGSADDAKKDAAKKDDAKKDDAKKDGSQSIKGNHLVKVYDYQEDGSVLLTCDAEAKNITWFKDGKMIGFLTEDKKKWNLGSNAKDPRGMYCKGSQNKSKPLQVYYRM

[2] = target: T1, single chain human CD3ε-26mer-CD3γ …; test: Biacore, human CD3εγ on chip, Fab in flow through
Protocol: Binding affinities for the each of the CD3/CD20 TDBs were tested by Biacore or FACS analysis, as described above for the anti-CD3 antibodies. Briefly, for Biacore binding assays, human CD3εγ was immobilized on Biacore Series S CM5 sensor chip using the amine coupling kit from Biacore and CD3/CD20 TDBs or Fab variants thereof were in the flow through. For FACS binding assays, either Bjab cells (for B cell antigens) or Jurkat cells (for CD3 antigen) were incubated with various concentrations of TDB antibodies at 4° C. for 30 minutes, then cells were washed and incubated with 2nd antibody (anti-huIgG-PE; BD Bioscience) for another 15 minutes, before cells were washed again and ready for FACS analysis.

Kd [1]: 87 nM
koff [1]: 0.0246 s⁻¹
kon [1]: 283000 M⁻¹ s⁻¹
B4: 38E4 v7 (antibody, V domains shown)
VH: EVQLVQSGAEVKKPGASVKVSCKASGFTFTSYYIHWVRQAPGQGLEWIGWIYPENDNTKYNEKFKDRVTITADTSTSTAYLELSSLRSEDTAVYYCARDGYSRYAFDYWGQGTLVTVSS
VL: DIVMTQSPDSLAVSLGERATINCKSSQSLLNSRTRKNYLAWYQQKPGQSPKLLIYWTSTRKSGVPDRFSGSGSGTDFTLTISSLQAEDVAVYYCKQSFILRTFGQGTKVEIK

Kd [2]: 1.6 nM
koff [2]: 0.00359 s⁻¹
kon [2]: 2.29e+06 M⁻¹ s⁻¹
B7: 38E4v2 Fab (Fab, V domains shown)
VH: B4 VH with G100A, A105Y
VL: B4 VL

Kd [2]: 34.2 nM
koff [2]: 0.00175 s⁻¹
kon [2]: 51100 M⁻¹ s⁻¹
B9: 38E4v6 Fab (Fab, V domains shown)
VH: B4 VH with D99T, A105Y
VL: B4 VL

Kd [1]: 10 nM
koff [1]: 0.0034 s⁻¹
kon [1]: 325000 M⁻¹ s⁻¹
B11: 38E4 v4 (antibody, V domains shown)
VH: B4 VH with A105Y
VL: B4 VL with Q96A

Kd [2]: 3.4 nM
koff [2]: 0.014 s⁻¹
kon [2]: 4.11e+06 M⁻¹ s⁻¹
B12: 38E4v3 Fab (Fab, V domains shown)
VH: B4 VH with A105Y
VL: B4 VL with I99A

Kd [2]: 10.3 nM
koff [2]: 0.00336 s⁻¹
kon [2]: 325000 M⁻¹ s⁻¹
B13: 38E4v4 Fab (Fab, V domains shown)
VH: B4 VH with A105Y
VL: B4 VL with Q96A

Kd [1]: 229 nM
koff [1]: 0.0166 s⁻¹
kon [1]: 72600 M⁻¹ s⁻¹
B15: 38E4 v9 (antibody, V domains shown)
VH: B4 VH with Y104A, A105Y
VL: B4 VL

Continued, binder first:

B1: 38E4 v2 (antibody, V domains shown)
VH: B4 VH with G100A, A105Y
VL: B4 VL
Kd [1]: 1.6 nM
koff [1]: 0.0036 s⁻¹
kon [1]: 2.29e+06 M⁻¹ s⁻¹

B2: 38E4 v5 (antibody, V domains shown)
VH: B4 VH with A105Y
VL: B4 VL with F98A
Kd [1]: 11 nM
koff [1]: 0.0225 s⁻¹
kon [1]: 2.05e+06 M⁻¹ s⁻¹

B3: 38E4 v6 (antibody, V domains shown)
VH: B4 VH with D99T, A105Y
VL: B4 VL
Kd [1]: 34 nM
koff [1]: 0.0017 s⁻¹
kon [1]: 51100 M⁻¹ s⁻¹

B5: 38E4v8 Fab (Fab, V domains shown)
VH: B4 VH with D99S, A105Y
VL: B4 VL
Kd [2]: 180 nM
koff [2]: 0.202 s⁻¹
kon [2]: 1.12e+06 M⁻¹ s⁻¹

B6: 38E4v5 Fab (Fab, V domains shown)
VH: B4 VH with A105Y
VL: B4 VL with F98A
Kd [2]: 11 nM
koff [2]: 0.0225 s⁻¹
kon [2]: 2.05e+06 M⁻¹ s⁻¹

B8: 38E4 v8 (antibody, V domains shown)
VH: B4 VH with D99S, A105Y
VL: B4 VL
Kd [1]: 180 nM
koff [1]: 0.202 s⁻¹
kon [1]: 1.12e+06 M⁻¹ s⁻¹

B10: 38E4 v3 (antibody, V domains shown)
VH: B4 VH with A105Y
VL: B4 VL with I99A
Kd [1]: 3.4 nM
koff [1]: 0.014 s⁻¹
kon [1]: 4.11e+06 M⁻¹ s⁻¹

B14: 38E4v7 Fab (Fab, V domains shown)
VH: B4 VH
VL: B4 VL
Kd [2]: 87 nM
koff [2]: 0.0246 s⁻¹
kon [2]: 283000 M⁻¹ s⁻¹
